In publication PMC2997469 (Bioorganic & medicinal chemistry letters, 2010):
No end group written: not given here.

How the values were obtained:
[1] = target: T1, XIAP protein containing linker-BIR2–BIR3; test: fluorescence polarisation
T1 chain: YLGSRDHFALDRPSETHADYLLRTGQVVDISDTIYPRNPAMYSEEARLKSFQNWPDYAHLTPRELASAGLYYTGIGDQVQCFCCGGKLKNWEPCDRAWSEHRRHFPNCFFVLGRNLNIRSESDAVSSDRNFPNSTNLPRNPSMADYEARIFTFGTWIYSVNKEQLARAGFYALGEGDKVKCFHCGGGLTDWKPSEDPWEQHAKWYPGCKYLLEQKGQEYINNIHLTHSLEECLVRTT

[2] = target: T2, cIAP-1 BIR3 protein; test: fluorescence polarisation
T2 chain: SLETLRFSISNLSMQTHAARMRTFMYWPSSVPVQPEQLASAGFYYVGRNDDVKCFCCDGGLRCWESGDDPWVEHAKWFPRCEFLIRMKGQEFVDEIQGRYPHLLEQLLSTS

**Q.** Which results are given for AKPF (also: cyclopeptidic structure not given here) [PSmac-21 (compound 1), cyclopeptidic Smac mimetic]?
**A.** IC50 site 1 [1]: 1 nM; IC50 site 2 [1]: 481 nM; Ki [2]: 84 ± 9 nM
